Test results from patent publication US20230391828A1, “REGULATORS OF CELL DIVISION” (TECHNISCHE UNIVERSITÄT DRESDEN, priority 2020, published 2023).
Bridge positions count the residues as written; N and C are the ends. Square brackets hold non-standard residues; d marks the D form. R8 = C=CCCCCCC[C@@](C)(N)C(=O)O; S5 = C=CCCC[C@](C)(N)C(=O)O

Legend:
[1] = molecular target: recombinant human APC/C (Strep-tagged APC4), expressed in SF9 cells (human) (UniProt Q9NYG5); test: cell-based or functional assay
[2] = molecular target: recombinant human APC/C (Strep-tagged APC4), expressed in SF9 cells (human) (UniProt Q9NYG5); test: inhibitory constant calculated with a model for non-competitive inhibition (Prism 6.0) from the in vitro APC/C ubiquitination assay (UBE2C, securin titration, with or without 3 µM G3-6)

Chain of recombinant human APC/C (Strep-tagged APC4), expressed in SF9 cells (human) (Q9NYG5 whole entry, chain 1 of 2): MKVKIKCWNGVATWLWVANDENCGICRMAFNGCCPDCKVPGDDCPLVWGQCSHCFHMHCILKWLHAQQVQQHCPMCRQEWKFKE
Chain of recombinant human APC/C (Strep-tagged APC4), expressed in SF9 cells (human) (Q9UJX5 whole entry, chain 2 of 2, further chain): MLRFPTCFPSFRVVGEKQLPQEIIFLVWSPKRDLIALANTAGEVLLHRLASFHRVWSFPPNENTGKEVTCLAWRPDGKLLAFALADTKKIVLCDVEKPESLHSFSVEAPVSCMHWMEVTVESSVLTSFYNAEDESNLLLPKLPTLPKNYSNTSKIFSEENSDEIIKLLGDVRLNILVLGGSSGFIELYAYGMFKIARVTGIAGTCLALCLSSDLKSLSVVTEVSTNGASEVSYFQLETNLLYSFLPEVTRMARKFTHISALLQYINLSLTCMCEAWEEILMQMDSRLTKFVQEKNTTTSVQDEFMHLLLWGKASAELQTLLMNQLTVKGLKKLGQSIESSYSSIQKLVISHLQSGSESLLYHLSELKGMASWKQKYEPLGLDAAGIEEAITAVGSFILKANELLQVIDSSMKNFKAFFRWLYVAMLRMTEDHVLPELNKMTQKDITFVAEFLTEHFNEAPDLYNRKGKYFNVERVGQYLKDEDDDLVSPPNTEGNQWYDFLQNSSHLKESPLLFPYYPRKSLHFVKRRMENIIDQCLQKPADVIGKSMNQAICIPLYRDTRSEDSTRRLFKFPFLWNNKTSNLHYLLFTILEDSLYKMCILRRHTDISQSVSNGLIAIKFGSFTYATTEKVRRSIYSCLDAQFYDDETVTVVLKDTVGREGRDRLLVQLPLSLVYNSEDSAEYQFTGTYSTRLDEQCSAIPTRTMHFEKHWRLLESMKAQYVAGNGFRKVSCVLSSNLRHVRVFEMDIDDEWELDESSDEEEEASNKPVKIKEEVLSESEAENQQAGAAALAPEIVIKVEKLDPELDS

- IC50, in vitro APC/C ubiquitination assay (UBE2C, securin, methylated ubiquitin, 0.01-100 µM G3-6, 10 min) [1]: 1.96 µM
- Ki [2]: 5 µM
B1: G3-6, Ac-cyclo(4,11)-EWWZIKEIQRXRRA-NH2 (peptide)
peptide: Ac-EWW[R8]IKEIQR[S5]RRA-NH2
modifications: staple 4-11
SMILES: CC[C@H](C)[C@@H]1NC(=O)[C@H](CCC(=O)O)NC(=O)[C@H](CCCCN)NC(=O)[C@H]([C@@H](C)CC)NC(=O)[C@](C)(NC(=O)[C@H](Cc2c[nH]c3ccccc23)NC(=O)[C@H](Cc2c[nH]c3ccccc23)NC(=O)[C@H](CCC(=O)O)NC(C)=O)CCCCCCC=CCCC[C@@](C)(C(=O)N[C@@H](CCCNC(=N)N)C(=O)N[C@@H](CCCNC(=N)N)C(=O)N[C@@H](C)C(N)=O)NC(=O)[C@H](CCCNC(=N)N)NC(=O)[C@H](CCC(N)=O)NC1=O
